In US20160200813A1 (AbbVie / Abbott, published 2016):
Values joined by “and” are separate entries in the source; they are usually repeats but may differ in a detail not shown here. Identical values can stand only once. *1 amine or outer side, *2 acyl side, *3 side chain or, on linkers, in order; H or OH if unused. Bridges are numbered along the chain shown (N, C = ends). Where no end group is shown, it is not given here. Lys(Aoa) = NOCC(=O)NCCCC[C@H](N[*:1])C(=O)[*:2]

Tests used:
[1] = biological target: T1, Cynomolgus monkey LRP-8 expressed on HEK293 cells (cynomolgus monkey); test: cell-based binding on CYNO LRP8-HEK293, supernatant 1:5
T1 construct: whole, on cells; also called cyno LRP-8; cLRP-8

[2] = biological target: T1, Cynomolgus monkey LRP-8 expressed on …; test: cell-based MSD, 1 to 125, cyno-LRP8-HEK293
[3] = biological target: T1, Cynomolgus monkey LRP-8 expressed on …; test: cell-based MSD, 1 to 25, cyno-LRP8-HEK293
[4] = biological target: T2, Human LRP-8 (isoform 3) expressed on cells (human, UniProt Q14114 33-963); test: cell-based MSD, 1 to 5, human_LRP8_HEK293
T2 construct: also called hLRP-8; huLRP-8
T2 sequence (Q14114 other isoform, or with tags, fused parts or gaps limits assumed): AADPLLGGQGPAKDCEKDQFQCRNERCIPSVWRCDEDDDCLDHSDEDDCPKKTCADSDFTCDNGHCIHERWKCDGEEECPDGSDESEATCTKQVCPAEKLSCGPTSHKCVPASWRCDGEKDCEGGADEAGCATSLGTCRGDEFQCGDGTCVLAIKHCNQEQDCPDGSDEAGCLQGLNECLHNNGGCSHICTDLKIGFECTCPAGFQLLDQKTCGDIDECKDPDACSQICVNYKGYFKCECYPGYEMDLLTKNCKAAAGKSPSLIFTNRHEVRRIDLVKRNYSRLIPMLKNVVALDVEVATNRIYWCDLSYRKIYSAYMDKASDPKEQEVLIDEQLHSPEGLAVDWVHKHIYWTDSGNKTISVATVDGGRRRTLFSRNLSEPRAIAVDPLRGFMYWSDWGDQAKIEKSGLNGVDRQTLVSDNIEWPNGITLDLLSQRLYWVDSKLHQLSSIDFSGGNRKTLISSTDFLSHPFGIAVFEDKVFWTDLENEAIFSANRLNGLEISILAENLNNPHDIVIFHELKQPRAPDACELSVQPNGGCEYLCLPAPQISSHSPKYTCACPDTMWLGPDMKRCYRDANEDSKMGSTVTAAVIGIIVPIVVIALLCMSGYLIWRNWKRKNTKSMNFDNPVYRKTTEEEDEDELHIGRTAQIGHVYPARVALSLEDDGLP

[5] = biological target: T2, Human LRP-8 (isoform 3) expressed on …; test: cell-based MSD, 1 to 25, human_LRP8_HEK293
[6] = biological target: T2, Human LRP-8 (isoform 3) expressed on …; test: cell-based MSD, 1 to 125, human_LRP8_HEK293
[7] = biological target: T2, Human LRP-8 (isoform 3) expressed on …; test: cell-based or functional assay
[8] = biological target: T1, Cynomolgus monkey LRP-8 expressed on …; test: cell-based MSD, 1 to 5, cyno-LRP8-HEK293
[9] = biological target: T1, Cynomolgus monkey LRP-8 expressed on …; test: cell-based binding on CYNO LRP8-HEK293, supernatant 1:25
[10] = biological target: T1, Cynomolgus monkey LRP-8 expressed on …; test: cell-based binding on CYNO LRP8-HEK293, supernatant 1:125
[11] = biological target: T1, Cynomolgus monkey LRP-8 expressed on …; test: cell-based ECL-MSD, 10 ug/ml Ab, cyno-LRP-8-HEK293
Description: (§1) A cell-based ECL-MSD binding assay was used to determine antibody affinity. HEK293 cells overexpressing human, monkey or mouse LRP-8 were added onto MSD 96-well plate (MSD Cat# L15XB-3/L11XB-3) and incubated at 37° C. for one hour. Cells were blocked using 15% FBS (Hyclone, Thermo Scientific Cat# SH300700.03) at RT for 30 minutes with mild agitation. Plates were washed with DPBS three times and Abs or DVD-Ig binding proteins were added to the well. After incubation at RT for one hour, plates were washed with DPBS and goat anti-human or anti-mouse Sulfo TAG (MSD Cat#R32AJ-1) was added. Plates were incubated at RT for one hour, washed with DPBS and immersed in MSD read buffer (MSD Cat#R92TD-2) before reading on a MSD SECTOR Imager 6000. EC50 values were obtained using Xlfit4 software system.

[12] = biological target: T2, Human LRP-8 (isoform 3) expressed on …; test: huLRP-8 cell-based binding
[13] = biological target: T2, Human LRP-8 (isoform 3) expressed on …; test: cell-based or functional assay; remark: listed apart in the source
[14] = biological target: T2, Human LRP-8 (isoform 3) expressed on …; test: cell-based ECL-MSD, 10 ug/ml Ab, human_LRP-8_HEK293
Description: as §1

[15] = biological target: T3, CR1.1 variant cyclic peptide (human, disulfide 1-13); test: ELISA, antibody titrated on coated CR1.1 peptide
T3 peptide: H-CEKDQAQSRNERCIPSVWR-{Lys(Aoa)-NH2}
Description: (§2) High binding MSD plates (MSD Cat# L15XB-3/L11XB-3) were coated with 1 μg/ml of CR1 or CR2 peptide overnight at 4° C. The next day, the plate was blocked with 3% MSD blocking buffer (MSD Cat# R93AA-01) for 1 hour at RT. The plates were washed with TTBS buffer (20 mM Tris; 0.5% Tween, 150 mM sodium chloride; pH 7.5) three times and a titer of anti-LRP-8 human Fc Ab was added. After incubating for 1 hour at RT, plate was washed and anti-human SULFO-TAG Ab was added to the plate and incubated for 1 hour. The plates were washed and immersed in MSD read buffer T with surfactant (MSD Cat# R92TC-1) before reading on an MSD SECTOR Imager 6000. Data were obtained and analyzed using a GraphPad Prism 6 software package (GraphPad Software, Inc., La Jolla, Calif.).

[16] = biological target: T4, CR1.2 variant cyclic peptide (human, disulfide 1-13); test: ELISA, antibody titrated on coated CR1.2 peptide
T4 peptide: H-CEKDQFQARNERCIPSVWR-{Lys(Aoa)-NH2}
Description: as §2

[17] = biological target: T5, CR1.3 variant cyclic peptide (human, disulfide 1-13); test: ELISA, antibody titrated on coated CR1.3 peptide
T5 peptide: H-CEKDQFQSRAERCIPSVWR-{Lys(Aoa)-NH2}
Description: as §2

[18] = biological target: T2, Human LRP-8 (isoform 3) expressed on …; test: cell-based MSD-ECL binding on cells overexpressing human LRP-8 variant 3 (hLRP8 assay)
Description: as §1

[19] = biological target: T2, Human LRP-8 (isoform 3) expressed on …; test: cell-based binding assay, hLRP8
[20] = biological target: T6, CR1 cyclic peptide of human LRP-8 (human, disulfide 1-13); test: antibody titrated on plates coated with 1 ug/ml CR1 peptide (Example 1.12.2); lower table, column ng/ml
T6 construct: also called CR1 peptide; conjugated human LRP-8 CR1 peptide
T6 peptide: CEKDQFQSRNERCIPSVWR-{Lys(Aoa)-NH2}
Description: as §2

[21] = biological target: T1, Cynomolgus monkey LRP-8 expressed on …; test: FACS, cyno LRP8 cells
[22] = biological target: T1, Cynomolgus monkey LRP-8 expressed on …; test: cell-based MSD-ECL binding on cells overexpressing cyno LRP-8 variant 1 (cynoLRP8 assay)
Description: as §1

[23] = biological target: T7, CR2 cyclic peptide of human LRP-8 (human, disulfide 1-13); test: antibody titrated on plates coated with 1 ug/ml CR2 peptide (Example 1.12.2); lower table, column ng/ml
T7 construct: also called CR2 peptide; conjugated human LRP-8 CR2 peptide
T7 peptide: CADSDFTSDNGHCIHERWK-{Lys(Aoa)-NH2}
Description: as §2

[24] = biological target: T6, CR1 cyclic peptide of human LRP-8; test: ELISA using CR1 peptide
[25] = biological target: T8, CR1.4 variant cyclic peptide (human, disulfide 1-13); test: BIACORE and direct ELISA
T8 peptide: H-CEKDQAQARAERCIPSVWR-{Lys(Aoa)-NH2}

[26] = biological target: T1, Cynomolgus monkey LRP-8 expressed on …; test: cell-based binding assay, cynoLRP8

B1: BGK-7F7 (GENOVAC candidate clone of Table 17) (antibody, V domains shown)
VH: QVTLKESGPGILQPSQTLSLTCTFSGFSLSTYGLGVGWIRQPSGKGLEWLANIWWDDAKYYNPSLKNRLTISKDTSNNQAFLKIPNVDTADTARYYCARTTKPYYFDYWGQGVMVTVSS
VL: HFVLAQPNSVSTNLGSTVKLSCKRSTANIGSNYVNWYQQHEGRSPTTLIYRDDRRPDGVPDRFSGSIDRSSNSALLTINNVQTEDEADYFCQSYSSGINIFGGGTKLTVL
notes: here the candidate from rat immunization before chimerization, tested at dilutions
fold over isotype control [1]: 3.23 fold
fold over IgG control [2]: 1.8 fold
fold over IgG control [3]: 1.9 fold
fold over IgG control [4]: 5 fold
fold over IgG control [5]: 5.2 fold
fold over IgG control [6]: 5 fold
Endocytosis, fold over-IgG [7]: 5.18 fold
Transcytosis, fold over-IgG [7]: 2.17 fold
fold over IgG control [8]: 2 fold
fold over isotype control [9]: 1.86 fold
fold over isotype control [10]: 1.5 fold

B2: anti-LRP-8 ML199-11H1.5B2 murine antibody (muFc) (antibody, V domains shown)
VH: EVQLVESGGDLVKPGGSLKLSCAASRFTFSNYGMSWVRQTPDKRLEWVATISSGGRYTYYPDSVKGRFTISRDNAKNTLYLQMSSLRSEDTAMYYCARDYLYAMDYWGQGTSVTVSS
VL: DVVMTQTPLSLPVSLGDQASISCRSSQSLVYSNGNTYLHWYLQKPGQSPKVLMYKVSNRFSGVSDRFSGSGSGTDFTLKISRVEAEDLGVYFCSQSTHVPLTFGAGTKLELK
notes: Mouse Fc form (muFc); also called ML199-11H1-5B2 muFc; anti-LRP-8,11H1.5B2
fold over mIgG control [11]: 7 fold
EC50 [12]: 0.4 nM
Endocytosis, fold over IgG control [13]: 1.7 fold
Transcytosis, fold over IgG control [13]: 2 fold
fold over mIgG control [14]: 15.1 fold

B3: chimeric anti-LRP-8 ML199.11H1.5B2 antibody [mu/hu IgG1/k] LALA (antibody, V domains shown)
VH: B2 VH
VL: B2 VL
notes: Mouse variable domains on human IgG1/kappa with L234A, L235A (LALA); also called ML199.11H1.5B2 hFc; ML199.11H1.5B2 mu/hu IgG1 m/k
binding result [15]: no binding (tested: 10000 ng/ml)
binding result [16]: binds
binding result [17]: binds
EC50 [18]: 0.0484 µg/mL and 0.32 nM
EC50 [19]: 0.22 nM
EC50 [20]: 0.225 µg/mL
FACS (ratio +/-) [21]: 141 ratio
EC50 [22]: 0.0691 µg/mL and 0.46 nM
EC50 [23]: 0.312 µg/mL
OD450 [24]: 4 OD450
binding result [25]: no binding
EC50 [26]: 0.21 nM
